The target of assay [1] is T1, cyno TfR extracellular domain (analogous construct to human TfR ecd) (cynomolgus monkey, UniProt Q5RDH6 87-760 (Pongo abelii entry)).
T1 construct: also called cynoTfR ecd
T1 chain: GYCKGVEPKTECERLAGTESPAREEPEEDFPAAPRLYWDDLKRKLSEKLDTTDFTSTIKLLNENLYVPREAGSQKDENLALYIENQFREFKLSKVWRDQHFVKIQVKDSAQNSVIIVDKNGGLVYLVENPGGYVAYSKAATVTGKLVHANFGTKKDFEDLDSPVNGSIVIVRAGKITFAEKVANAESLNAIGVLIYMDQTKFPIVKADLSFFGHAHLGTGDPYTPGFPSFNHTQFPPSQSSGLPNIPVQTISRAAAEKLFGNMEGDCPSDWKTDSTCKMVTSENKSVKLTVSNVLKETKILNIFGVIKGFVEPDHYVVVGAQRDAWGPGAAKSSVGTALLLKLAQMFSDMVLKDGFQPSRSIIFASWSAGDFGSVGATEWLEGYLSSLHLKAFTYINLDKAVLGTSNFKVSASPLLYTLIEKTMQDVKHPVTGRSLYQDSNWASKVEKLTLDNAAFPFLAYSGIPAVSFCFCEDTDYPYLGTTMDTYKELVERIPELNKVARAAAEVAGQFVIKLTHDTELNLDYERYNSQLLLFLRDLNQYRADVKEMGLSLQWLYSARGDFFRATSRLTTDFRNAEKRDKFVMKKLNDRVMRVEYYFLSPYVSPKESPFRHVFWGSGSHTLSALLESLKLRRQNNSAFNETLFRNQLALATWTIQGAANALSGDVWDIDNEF
Briefly: ELISA, TfR-coated plate, IgG in culture supernatant.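 Further: human or cynomolgus TfR coated at 2 µg/mL, supernatant IgG titrated in 1:5 steps for 1 h, bound antibody read with HRP anti-human Fcγ and TMB.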 A general note: In an ELISA, binding on a coated surface is turned into a signal by an enzyme label.

The target in assay [2] is T2, human TfR extracellular domain with N-terminal His tag (human, UniProt P02786 89-760).
T2 construct: Biotinylated in some assays; also called huTfR; HuTfR
Described as above.

Assay [3] concerns the target BACE1 in primary mouse cortical neurons (mouse, UniProt P56818 46-501). In words: cell-based or functional assay.
For assay [4], the target named is BACE1 (HTRF long substrate and FRET short substrate assays of Example 9D). In words: cell-based or functional assay.

The values that follow come from patent US20180057604A1 (Genentech, published 2018).

T2 sequence (P02786 89-760 G142S): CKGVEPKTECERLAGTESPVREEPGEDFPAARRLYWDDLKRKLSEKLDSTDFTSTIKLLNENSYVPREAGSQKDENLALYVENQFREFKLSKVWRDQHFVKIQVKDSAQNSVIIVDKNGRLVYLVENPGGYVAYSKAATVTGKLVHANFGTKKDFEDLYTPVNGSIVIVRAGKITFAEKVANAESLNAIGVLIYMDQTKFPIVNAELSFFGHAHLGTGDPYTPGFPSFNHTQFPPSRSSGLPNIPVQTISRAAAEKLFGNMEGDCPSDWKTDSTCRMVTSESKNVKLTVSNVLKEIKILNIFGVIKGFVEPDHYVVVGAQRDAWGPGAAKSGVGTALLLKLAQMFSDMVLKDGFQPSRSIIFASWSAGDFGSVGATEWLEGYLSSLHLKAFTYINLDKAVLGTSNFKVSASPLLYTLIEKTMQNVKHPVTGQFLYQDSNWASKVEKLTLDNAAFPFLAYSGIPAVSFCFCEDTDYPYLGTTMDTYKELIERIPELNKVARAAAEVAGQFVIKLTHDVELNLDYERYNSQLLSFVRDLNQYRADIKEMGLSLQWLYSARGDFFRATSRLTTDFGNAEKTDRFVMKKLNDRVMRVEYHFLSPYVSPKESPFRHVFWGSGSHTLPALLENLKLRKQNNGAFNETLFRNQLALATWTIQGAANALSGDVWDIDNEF
Chain of BACE1 in primary mouse cortical neurons (P56818 46-501): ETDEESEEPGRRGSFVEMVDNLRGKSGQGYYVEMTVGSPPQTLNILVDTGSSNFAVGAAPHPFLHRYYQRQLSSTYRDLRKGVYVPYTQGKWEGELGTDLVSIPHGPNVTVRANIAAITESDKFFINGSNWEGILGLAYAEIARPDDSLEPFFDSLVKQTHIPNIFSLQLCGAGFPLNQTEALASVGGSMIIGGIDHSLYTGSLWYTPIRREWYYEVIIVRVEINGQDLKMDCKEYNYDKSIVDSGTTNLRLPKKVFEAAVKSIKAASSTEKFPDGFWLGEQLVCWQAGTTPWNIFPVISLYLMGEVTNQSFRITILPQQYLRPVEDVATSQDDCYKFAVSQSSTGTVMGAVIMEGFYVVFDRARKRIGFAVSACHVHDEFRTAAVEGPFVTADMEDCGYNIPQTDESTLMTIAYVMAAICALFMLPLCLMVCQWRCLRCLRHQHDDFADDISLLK

B1: hu15G11.v5 IgG Ala variant D27A (HVR-L1) (antibody, V domains shown)
VH: EVQLVQSGAEVKKPGASVKVSCKASGYTFTSYWMHWVRQAPGQRLEWIGEINPTNGRTNYIEKFKSRATLTVDKSASTAYMELSSLRSEDTAVYYCARGTRAYHYWGQGTMVTVSS
VL: DIQMTQSPSSLSASVGDRVTITCRASANLYSNLAWYQQKPGKSPKLLVYDATNLADGVPSRFSGSGSGTDYTLTISSLQPEDFATYYCQHFWGTPLTFGQGTKVEIK
notes: IgG in cell culture supernatant
As a reminder, the EC50 is the midpoint of the concentration-response curve. A low value points to higher potency in that assay. B1: the EC50 is 0.8 ng/mL in assay [1] and 0.2 ng/mL in assay [2].

B2: hu15G11.v5 IgG Ala variant K64A (HVR-H2) (antibody, name in Kabat numbering, V domains shown)
VH: EVQLVQSGAEVKKPGASVKVSCKASGYTFTSYWMHWVRQAPGQRLEWIGEINPTNGRTNYIEKFASRATLTVDKSASTAYMELSSLRSEDTAVYYCARGTRAYHYWGQGTMVTVSS
VL: DIQMTQSPSSLSASVGDRVTITCRASDNLYSNLAWYQQKPGKSPKLLVYDATNLADGVPSRFSGSGSGTDYTLTISSLQPEDFATYYCQHFWGTPLTFGQGTKVEIK
notes: IgG in cell culture supernatant; Kabat numbers after 52a lie one below the linear count
As to B2, the EC50 was determined as 0.6 ng/mL in assay [1] and 0.3 ng/mL in assay [2].

B3: hu15G11.v5 IgG Ala variant G49A (HVR-H2) (antibody, name in Kabat numbering, V domains shown)
VH: EVQLVQSGAEVKKPGASVKVSCKASGYTFTSYWMHWVRQAPGQRLEWIAEINPTNGRTNYIEKFKSRATLTVDKSASTAYMELSSLRSEDTAVYYCARGTRAYHYWGQGTMVTVSS
VL: DIQMTQSPSSLSASVGDRVTITCRASDNLYSNLAWYQQKPGKSPKLLVYDATNLADGVPSRFSGSGSGTDYTLTISSLQPEDFATYYCQHFWGTPLTFGQGTKVEIK
notes: as for B1
Consider B3, for which the EC50 in assay [1] amounted to 1.1 ng/mL; in assay [2], 0.3 ng/mL.

B4: hu15G11.v5 IgG Ala variant E50A (HVR-H2) (antibody, name in Kabat numbering, V domains shown)
VH: EVQLVQSGAEVKKPGASVKVSCKASGYTFTSYWMHWVRQAPGQRLEWIGAINPTNGRTNYIEKFKSRATLTVDKSASTAYMELSSLRSEDTAVYYCARGTRAYHYWGQGTMVTVSS
VL: DIQMTQSPSSLSASVGDRVTITCRASDNLYSNLAWYQQKPGKSPKLLVYDATNLADGVPSRFSGSGSGTDYTLTISSLQPEDFATYYCQHFWGTPLTFGQGTKVEIK
notes: as for B1
The molecule B4 yielded an EC50 in assay [1] of 410 ng/mL.

B5: hu15G11.v5 IgG Ala variant D56A (HVR-L2) (antibody, V domains shown)
VH: EVQLVQSGAEVKKPGASVKVSCKASGYTFTSYWMHWVRQAPGQRLEWIGEINPTNGRTNYIEKFKSRATLTVDKSASTAYMELSSLRSEDTAVYYCARGTRAYHYWGQGTMVTVSS
VL: DIQMTQSPSSLSASVGDRVTITCRASDNLYSNLAWYQQKPGKSPKLLVYDATNLAAGVPSRFSGSGSGTDYTLTISSLQPEDFATYYCQHFWGTPLTFGQGTKVEIK
notes: as for B1
As for B5, the EC50 in assay [1] was 0.5 ng/mL; in assay [2], 0.3 ng/mL.

B6: hu15G11.v5 IgG Ala variant L33A (HVR-L1) (antibody, V domains shown)
VH: EVQLVQSGAEVKKPGASVKVSCKASGYTFTSYWMHWVRQAPGQRLEWIGEINPTNGRTNYIEKFKSRATLTVDKSASTAYMELSSLRSEDTAVYYCARGTRAYHYWGQGTMVTVSS
VL: DIQMTQSPSSLSASVGDRVTITCRASDNLYSNAAWYQQKPGKSPKLLVYDATNLADGVPSRFSGSGSGTDYTLTISSLQPEDFATYYCQHFWGTPLTFGQGTKVEIK
notes: as for B1
Take B6: the EC50 in assay [1] is 0.1 ng/mL; in assay [2], 0.05 ng/mL.

B7: hu15G11.v5 IgG Ala variant E61A (HVR-H2) (antibody, name in Kabat numbering, V domains shown)
VH: EVQLVQSGAEVKKPGASVKVSCKASGYTFTSYWMHWVRQAPGQRLEWIGEINPTNGRTNYIAKFKSRATLTVDKSASTAYMELSSLRSEDTAVYYCARGTRAYHYWGQGTMVTVSS
VL: DIQMTQSPSSLSASVGDRVTITCRASDNLYSNLAWYQQKPGKSPKLLVYDATNLADGVPSRFSGSGSGTDYTLTISSLQPEDFATYYCQHFWGTPLTFGQGTKVEIK
notes: as for B2
On to B7, for which the EC50 in assay [1] was 0.6 ng/mL; in assay [2], 0.2 ng/mL.

B8: hu15G11.v5 IgG Ala variant I51A (HVR-H2) (antibody, name in Kabat numbering, V domains shown)
VH: EVQLVQSGAEVKKPGASVKVSCKASGYTFTSYWMHWVRQAPGQRLEWIGEANPTNGRTNYIEKFKSRATLTVDKSASTAYMELSSLRSEDTAVYYCARGTRAYHYWGQGTMVTVSS
VL: DIQMTQSPSSLSASVGDRVTITCRASDNLYSNLAWYQQKPGKSPKLLVYDATNLADGVPSRFSGSGSGTDYTLTISSLQPEDFATYYCQHFWGTPLTFGQGTKVEIK
notes: as for B1
On to B8, for which the EC50 in assay [1] was found to be 0.6 ng/mL; in assay [2], 0.2 ng/mL.

B9: hu15G11.v5 IgG Ala variant L29A (HVR-L1) (antibody, V domains shown)
VH: EVQLVQSGAEVKKPGASVKVSCKASGYTFTSYWMHWVRQAPGQRLEWIGEINPTNGRTNYIEKFKSRATLTVDKSASTAYMELSSLRSEDTAVYYCARGTRAYHYWGQGTMVTVSS
VL: DIQMTQSPSSLSASVGDRVTITCRASDNAYSNLAWYQQKPGKSPKLLVYDATNLADGVPSRFSGSGSGTDYTLTISSLQPEDFATYYCQHFWGTPLTFGQGTKVEIK
notes: as for B1
With B9, the EC50 in assay [1] amounted to 0.9 ng/mL; in assay [2] it was 0.3 ng/mL.

B10: hu15G11.v5 IgG Ala variant L54A (HVR-L2) (antibody, V domains shown)
VH: EVQLVQSGAEVKKPGASVKVSCKASGYTFTSYWMHWVRQAPGQRLEWIGEINPTNGRTNYIEKFKSRATLTVDKSASTAYMELSSLRSEDTAVYYCARGTRAYHYWGQGTMVTVSS
VL: DIQMTQSPSSLSASVGDRVTITCRASDNLYSNLAWYQQKPGKSPKLLVYDATNAADGVPSRFSGSGSGTDYTLTISSLQPEDFATYYCQHFWGTPLTFGQGTKVEIK
notes: as for B1
Take B10: the EC50 in assay [1] is 0.5 ng/mL; in assay [2] it was 0.4 ng/mL.

B11: hu15G11.v5 IgG Ala variant I60A (HVR-H2) (antibody, name in Kabat numbering, V domains shown)
VH: EVQLVQSGAEVKKPGASVKVSCKASGYTFTSYWMHWVRQAPGQRLEWIGEINPTNGRTNYAEKFKSRATLTVDKSASTAYMELSSLRSEDTAVYYCARGTRAYHYWGQGTMVTVSS
VL: DIQMTQSPSSLSASVGDRVTITCRASDNLYSNLAWYQQKPGKSPKLLVYDATNLADGVPSRFSGSGSGTDYTLTISSLQPEDFATYYCQHFWGTPLTFGQGTKVEIK
notes: as for B2
For B11, the results for the EC50 in assay [1] and in assay [2] were 0.7 ng/mL and 0.3 ng/mL, respectively.

B12: hu15G11.v5 IgG Ala variant D50A (HVR-L2) (antibody, V domains shown)
VH: EVQLVQSGAEVKKPGASVKVSCKASGYTFTSYWMHWVRQAPGQRLEWIGEINPTNGRTNYIEKFKSRATLTVDKSASTAYMELSSLRSEDTAVYYCARGTRAYHYWGQGTMVTVSS
VL: DIQMTQSPSSLSASVGDRVTITCRASDNLYSNLAWYQQKPGKSPKLLVYAATNLADGVPSRFSGSGSGTDYTLTISSLQPEDFATYYCQHFWGTPLTFGQGTKVEIK
notes: as for B1
As to B12, the EC50 in assay [1] amounted to 0.5 ng/mL; in assay [2], 0.2 ng/mL.

B13: hu15G11.v5 IgG Ala variant F29A (HVR-H1) (antibody, name in Kabat numbering, V domains shown)
VH: EVQLVQSGAEVKKPGASVKVSCKASGYTATSYWMHWVRQAPGQRLEWIGEINPTNGRTNYIEKFKSRATLTVDKSASTAYMELSSLRSEDTAVYYCARGTRAYHYWGQGTMVTVSS
VL: DIQMTQSPSSLSASVGDRVTITCRASDNLYSNLAWYQQKPGKSPKLLVYDATNLADGVPSRFSGSGSGTDYTLTISSLQPEDFATYYCQHFWGTPLTFGQGTKVEIK
notes: as for B1
For B13, the EC50 in assay [2] was determined as 1.5 ng/mL.

B14: hu15G11.v5 IgG Ala variant K62A (HVR-H2) (antibody, name in Kabat numbering, V domains shown)
VH: EVQLVQSGAEVKKPGASVKVSCKASGYTFTSYWMHWVRQAPGQRLEWIGEINPTNGRTNYIEAFKSRATLTVDKSASTAYMELSSLRSEDTAVYYCARGTRAYHYWGQGTMVTVSS
VL: DIQMTQSPSSLSASVGDRVTITCRASDNLYSNLAWYQQKPGKSPKLLVYDATNLADGVPSRFSGSGSGTDYTLTISSLQPEDFATYYCQHFWGTPLTFGQGTKVEIK
notes: as for B2
As to B14, the EC50 was determined as 0.7 ng/mL in assay [1] and 0.3 ng/mL in assay [2].

B15: hu15G11.v5 IgG Ala variant G26A (HVR-H1) (antibody, name in Kabat numbering, V domains shown)
VH: EVQLVQSGAEVKKPGASVKVSCKASAYTFTSYWMHWVRQAPGQRLEWIGEINPTNGRTNYIEKFKSRATLTVDKSASTAYMELSSLRSEDTAVYYCARGTRAYHYWGQGTMVTVSS
VL: DIQMTQSPSSLSASVGDRVTITCRASDNLYSNLAWYQQKPGKSPKLLVYDATNLADGVPSRFSGSGSGTDYTLTISSLQPEDFATYYCQHFWGTPLTFGQGTKVEIK
notes: as for B1
As for B15, the results for the EC50 in assay [1] and in assay [2] were 6.1 ng/mL and 1.1 ng/mL, respectively.

B16: hu15G11.v5 IgG Ala variant F63A (HVR-H2) (antibody, name in Kabat numbering, V domains shown)
VH: EVQLVQSGAEVKKPGASVKVSCKASGYTFTSYWMHWVRQAPGQRLEWIGEINPTNGRTNYIEKAKSRATLTVDKSASTAYMELSSLRSEDTAVYYCARGTRAYHYWGQGTMVTVSS
VL: DIQMTQSPSSLSASVGDRVTITCRASDNLYSNLAWYQQKPGKSPKLLVYDATNLADGVPSRFSGSGSGTDYTLTISSLQPEDFATYYCQHFWGTPLTFGQGTKVEIK
notes: as for B2
For B16, the EC50 was 0.6 ng/mL in assay [1] and 0.4 ng/mL in assay [2].

B17: 5643 (antibody, V domains shown)
VH: QLQLQESGPGLVKPSETLSLTCTVSGGSISSSSYYWGWIRQPPGKGLEWIGSIYYSGSTYYNPSLKSRVTISVDTSKNQFSLKLSSVTAADTAVYYCARVGHGISYFDLWGRGTLVTVSS
VL: EIVLTQSPATLSLSPGERATLSCRASQSVSSYLAWYQQKPGQAPRLLIYDASNRATGIPARFSGSGSGTDFTLTISSLEPEDFAVYYCQQSLTWPPRTFGGGTKVEIK
Take B17: in assay [3], the “IC50, Abeta x-40 in mouse cortical neurons” value turned out to be 9.71 nM and the “maximal % inhibition of Abeta x-40” value worked out at 60%. Moreover, in assay [4], the “EC50, FRET short substrate” value was 1.41 nM and the “EC50, HTRF long substrate” value was 17.7 nM.
